B1: anti-4-1BB (20H4.9) huIgG1 P329GLALA antibody (antibody, V domains shown)
VH: QVQLQQWGAGLLKPSETLSLTCAVYGGSFSGYYWSWIRQSPEKGLEWIGEINHGGYVTYNPSLESRVTISVDTSKNQFSLKLSSVTAADTAVYYCARDYGPGNYDWYFDLWGRGTLVTVSS
VL: EIVLTQSPATLSLSPGERATLSCRASQSVSSYLAWYQQKPGQAPRLLIYDASNRATGIPARFSGSGSGTDFTLTISSLEPEDFAVYYCQQRSNWPPALTFGGGTKVEIK
B2: anti-4-1BB (20H4.9) huIgG4 (antibody, V domains shown)
VH: B1 VH
VL: B1 VL
B3: FAP (4B9)-CD40 Contorsbody P1AE2052 (bispecific antibody, IgG1)
chain 1: not shown
chain 2: DIQMTQSPSSLSASVGDRVTITCRSSQSLVHSNGNTFLHWYQQKPGKAPKLLIYTVSNRFSGVPSRFSGSGSGTDFTLTISSLQPEDFATYFCSQTTHVPWTFGGGTKVEIKRTVAAPSVFIFPPSDEQLKSGTASVVCLLNNFYPREAKVQWKVDNALQSGNSQESVTEQDSKDSTYSLSSTLTLSKADYEKHKVYACEVTHQGLSSPVTKSFNRGECGGGGSGGGGSDKTHTCPPCPAPEAAGGPSVFLFPPKPKDTLMISRTPEVTCVVVDVSHEDPEVKFNWYVDGVEVHNAKTKPREEQYNSTYRVVSVLTVLHQDWLNGKEYKCKVSNKALGAPIEKTISKAKGQPREPQVCTLPPSRDELTKNQVSLSCAVKGFYPSDIAVEWESNGQPENNYKTTPPVLDSDGSFFLVSKLTVDKSRWQQGNVFSCSVMHEALHNHYTQKSLSLSPGKGGGGSGGGGSEVQLLESGGGLVQPGGSLRLSCAASGYSFTGYYIHWVRQAPGKGLEWVGRVIPNAGGTSYNQKFKGRFTISVDNSKNTAYLQMNSLRAEDTAVYYCAREGIYWWGQGTTVTVSSASTKGPSVFPLAPSSKSTSGGTAALGCLVKDYFPEPVTVSWNSGALTSGVHTFPAVLQSSGLYSLSSVVTVPSSSLGTQTYICNVNHKPSNTKVDKKVEPKSCGGGGSGGGGSGGGSGGGGSEIVLTQSPGTLSLSPGERATLSCRASQSVTSSYLAWYQQKPGQAPRLLINVGSRRATGIPDRFSGSGSGTDFTLTISRLEPEDFAVYYCQQGIMLPPTFGQGTKVEIKSSASTKGPSVFPLAPSSKSTSGGTAALGCLVKDYFPEPVTVSWNSGALTSGVHTFPAVLQSSGLYSLSSVVTVPSSSLGTQTYICNVNHKPSNTKVDKKVEPKSC
notes: 2+1 contorsbody; IgG1 Fc knob/hole, P329G LALA

Columns and labels:
[1] = target: T1, human 4-1BB on Jurkat-hu4-1BB-NFκB-luc2 reporter cells (human, UniProt Q07011 24-255); assay: cell-based or functional assay
[2] = target: T1, human 4-1BB on Jurkat-hu4-1BB-NFκB-luc2 …; assay: cell-based or functional assay; remark: listed apart in the source
recombinant human FAP = target: T2, recombinant human FAP (human, UniProt Q12884 26-760); assay: SPR, huFAP captured (anti-His), Ab analyte
T2 construct: exact construct not described; also called FAP ECD; not shown: The histidine tag (and any linker to it) implied by capture on an anti-histidine antibody
Protocol: Around 12000 resonance units (RU) of the capturing system (15 μg/ml anti-histidine antibody; Order Code: 28995056; GE Healthcare Bio-Sciences AB, Sweden) were coupled on a CMS chip (GE Healthcare BR-1005-30) at pH 4.5 by using an amine coupling kit supplied by the GE Healthcare. Running buffer for Immobilization was HBS-N pH 7.4 (10 mM HEPES, 150 mM NaCl, pH 7.4, GE Healthcare). For the following kinetic characterization running buffer was PBS-P pH 7.4 (20 mM phosphate buffer, 2.7 mM KCl, 137 mM NaCl, 0.05% surfactant P20). The flow cell was set to 25° C.—and the sample block set to 12° C.—and primed with running buffer twice. […] The dissociation phase was monitored for up to 720 s and triggered by switching from the sample solution to running buffer. The surface was regenerated by washing with 10 mM Glycine pH 1.5 for 60 s at a flow rate of 30 μl/min. Bulk refractive index differences were corrected by subtracting the response obtained from an anti-histidine surface. Blank injections are also subtracted (=double referencing). For calculation of KD and kinetic parameters the Langmuir 1:1 model was used.

[3] = target: T3, recombinant human CD40_ECD (human, UniProt P25942 21-193); assay: SPR Biacore T200, huCD40 ECD analyte, apparent KD
T3 construct: also called human CD40 extra cellular domain
Protocol: The capacity of the bispecific constructs to bind human CD40 was assessed by surface plasmon resonance (SPR). […] Bulk refractive index differences were corrected by subtracting the response obtained from a goat anti human F(ab′)2 surface. Blank injections are also subtracted (=double referencing). For calculation of apparent KD and other kinetic parameters the Langmuir 1:1 model was used. The apparent Kd was calculated using the Biacore™ B4000 evaluation software (version 1.1).

T1 sequence (Q07011 24-255 limits assumed): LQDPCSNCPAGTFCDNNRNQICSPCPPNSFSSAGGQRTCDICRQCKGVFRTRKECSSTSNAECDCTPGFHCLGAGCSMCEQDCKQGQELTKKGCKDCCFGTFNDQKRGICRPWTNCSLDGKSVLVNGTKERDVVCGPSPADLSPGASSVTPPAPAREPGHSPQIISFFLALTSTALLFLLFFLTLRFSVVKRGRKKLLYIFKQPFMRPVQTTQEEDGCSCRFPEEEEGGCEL

Binder | EC50 of NFκB-luciferase activation in Jurkat-hu4-1BB-NFκB-luc2 cells with NIH/3T3-huFAP clone 19 [1] [nM] | area under the curve (AUC) of NFκB-luciferase activation in Jurkat-hu4-1BB-NFκB-luc2 cells with NIH/3T3-huFAP clone 19 [2] | Kd (recombinant human FAP) [nM] | koff (recombinant human FAP) [s⁻¹] | kon (recombinant human FAP) [M⁻¹ s⁻¹] | t 1/2 (recombinant human FAP) [min] | Kd [3] [nM] | koff [3] [s⁻¹] | kon [3] [M⁻¹ s⁻¹] | t 1/2 [3] [min]
B1 | 0.321 | 15500 | – | – | – | – | – | – | – | –
B2 | 0.701 | 13000 | – | – | – | – | – | – | – | –
B3 | – | – | 8.31 | 0.000296 | 35600 | 39.1 | 7.2 | 0.00681 | 945000 | 1.7

— patent US20210324108A1 (Hoffmann-La Roche, published 2021)
